The results in this text go back to patent US20050239072.

This data set addresses human recombinant prion protein hrPrP (PrP23-231) (Homo sapiens) (UniProt P04156). Nature of the data set: FP filter.
The mark [1] stands for this setting: no tRNA, 250 mM NaCl, 2 mM MgCl2, 37 C.

pKd: −log10 of the molar value.

On to MDV (244 nt), for which the negative-log Kd (pKd) is 8.12 under setting [1] and 6.77 (with tRNA competitor).
With MNV (86 nt), the pKd reads like this: under setting [1], 7.42; (with tRNA competitor) 6.00.

The pKd is the Kd on a negative log10 scale, so that one unit is a factor of ten.
